Assay results as given in publication PMC11535040, “Requirement of Nek2a and cyclin A2 for Wapl-dependent removal of cohesin from prophase chromatin” (The EMBO Journal, 2024).

Molecular target: T1, Flag-tagged Pds5a (human, UniProt Q29RF7 1-1337)
T1 construct: Pds5a, human; insert by PCR on human cDNA; also called Flag-Pds5; source: Hek293T, transfected (alone or with eGFP-Nek2aΔMR and eGFP-Δ86-cyclin A2), taxol-arrested
T1 sequence (looked up): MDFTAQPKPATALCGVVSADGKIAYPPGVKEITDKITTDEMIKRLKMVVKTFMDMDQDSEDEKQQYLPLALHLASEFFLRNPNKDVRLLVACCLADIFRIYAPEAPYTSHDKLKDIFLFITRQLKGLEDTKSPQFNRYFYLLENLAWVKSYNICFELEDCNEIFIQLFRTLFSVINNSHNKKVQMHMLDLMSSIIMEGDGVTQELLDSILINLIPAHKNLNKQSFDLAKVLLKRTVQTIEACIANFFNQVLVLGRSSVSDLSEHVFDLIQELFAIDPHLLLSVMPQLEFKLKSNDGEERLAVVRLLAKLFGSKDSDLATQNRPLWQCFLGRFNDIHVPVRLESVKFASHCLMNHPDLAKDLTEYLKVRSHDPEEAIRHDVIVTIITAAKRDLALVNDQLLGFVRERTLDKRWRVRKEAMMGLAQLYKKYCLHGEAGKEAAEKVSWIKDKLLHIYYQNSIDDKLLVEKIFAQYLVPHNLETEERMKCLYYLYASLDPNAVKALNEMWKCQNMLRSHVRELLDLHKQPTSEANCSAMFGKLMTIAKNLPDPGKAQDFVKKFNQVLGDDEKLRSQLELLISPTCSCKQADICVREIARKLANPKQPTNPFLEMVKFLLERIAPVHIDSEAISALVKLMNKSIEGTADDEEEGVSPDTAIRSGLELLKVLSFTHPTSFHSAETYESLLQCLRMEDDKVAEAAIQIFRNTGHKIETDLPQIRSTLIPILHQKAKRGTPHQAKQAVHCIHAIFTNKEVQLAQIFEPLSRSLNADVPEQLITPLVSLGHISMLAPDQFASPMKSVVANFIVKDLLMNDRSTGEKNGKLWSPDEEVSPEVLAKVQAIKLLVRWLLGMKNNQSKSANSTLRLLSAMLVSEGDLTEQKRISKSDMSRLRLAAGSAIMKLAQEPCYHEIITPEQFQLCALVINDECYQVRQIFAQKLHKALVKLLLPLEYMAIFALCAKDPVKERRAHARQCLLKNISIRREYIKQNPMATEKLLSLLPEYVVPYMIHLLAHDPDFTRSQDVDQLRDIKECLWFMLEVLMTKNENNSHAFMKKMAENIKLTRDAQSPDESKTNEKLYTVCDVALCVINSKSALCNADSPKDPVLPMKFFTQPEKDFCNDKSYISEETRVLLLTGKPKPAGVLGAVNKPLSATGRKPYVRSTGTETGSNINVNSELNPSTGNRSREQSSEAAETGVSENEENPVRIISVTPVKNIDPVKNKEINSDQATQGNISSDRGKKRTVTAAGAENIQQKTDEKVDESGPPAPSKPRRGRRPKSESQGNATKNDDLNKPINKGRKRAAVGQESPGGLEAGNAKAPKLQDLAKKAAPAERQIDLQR
Experiment: pull-down; Flag-Pds5a or -b affinity-purified on anti-Flag beads from chromatin-free lysates of taxol-arrested Hek293T cells (expressed alone or with Nek2aΔMR and/or Δ86-cyclin A2); beads incubated with a mixture of recombinant Wapl (2 µl) and sororin (0.3 µg) in 15 µl cleavage buffer with kinase inhibitors, 20 min at 37 °C; bound and unbound fractions by immunoblotting
Settings: both partners purified

binding result: binds
B1: recombinant human Wapl (natural protein, UniProt Q7Z5K2 1-1190, looked up)
chain: MTSRFGKTYSRKGGNGSSKFDEVFSNKRTTLSTKWGETTFMAKLGQKRPNFKPDIQEIPKKPKVEEESTGDPFGFDSDDESLPVSSKNLAQVKCSSYSESSEAAQLEEVTSVLEANSKISHVVVEDTVVSDKCFPLEDTLLGKEKSTNRIVEDDASISSCNKLITSDKVENFHEEHEKNSHHIHKNADDSTKKPNAETTVASEIKETNDTWNSQFGKRPESPSEISPIKGSVRTGLFEWDNDFEDIRSEDCILSLDSDPLLEMKDDDFKNRLENLNEAIEEDIVQSVLRPTNCRTYCRANKTKSSQGASNFDKLMDGTSQALAKANSESSKDGLNQAKKGGVSCGTSFRGTVGRTRDYTVLHPSCLSVCNVTIQDTMERSMDEFTASTPADLGEAGRLRKKADIATSKTTTRFRPSNTKSKKDVKLEFFGFEDHETGGDEGGSGSSNYKIKYFGFDDLSESEDDEDDDCQVERKTSKKRTKTAPSPSLQPPPESNDNSQDSQSGTNNAENLDFTEDLPGVPESVKKPINKQGDKSKENTRKIFSGPKRSPTKAVYNARHWNHPDSEELPGPPVVKPQSVTVRLSSKEPNQKDDGVFKAPAPPSKVIKTVTIPTQPYQDIVTALKCRREDKELYTVVQHVKHFNDVVEFGENQEFTDDIEYLLSGLKSTQPLNTRCLSVISLATKCAMPSFRMHLRAHGMVAMVFKTLDDSQHHQNLSLCTAALMYILSRDRLNMDLDRASLDLMIRLLELEQDASSAKLLNEKDMNKIKEKIRRLCETVHNKHLDLENITTGHLAMETLLSLTSKRAGDWFKEELRLLGGLDHIVDKVKECVDHLSRDEDEEKLVASLWGAERCLRVLESVTVHNPENQSYLIAYKDSQLIVSSAKALQHCEELIQQYNRAEDSICLADSKPLPHQNVTNHVGKAVEDCMRAIIGVLLNLTNDNEWGSTKTGEQDGLIGTALNCVLQVPKYLPQEQRFDIRVLGLGLLINLVEYSARNRHCLVNMETSCSFDSSICSGEGDDSLRIGGQVHAVQALVQLFLERERAAQLAESKTDELIKDAPTTQHDKSGEWQETSGEIQWVSTEKTDGTEEKHKKEEEDEELDLNKALQHAGKHMEDCIVASYTALLLGCLCQESPINVTTVREYLPEGDFSIMTEMLKKFLSFMNLTCAVGTTGQKSISRVIEYLEHC
notes: Wapl, human; insert by PCR on human cDNA; Isolated from mitotically arrested cells; also called GFP-SUMOstar-Wapl; source: Hek293T, transiently transfected, taxol-arrested; not shown: GFP, N-terminal, cleaved; SUMOstar, N-terminal, cleaved
